We go through one substance from PMC2515342.

One may read the Kd as the equilibrium constant for the complex coming apart.

The target of assay [1] is apo-hemoglobin (hemoglobin lacking heme) (bovine) (UniProt P01966). Put plainly: SPR. A general note: SPR reads the build-up and loss of mass on a sensor chip optically.
Assay [2] addresses hemoglobin (with bound heme) (bovine) (UniProt P01966). Put plainly: SPR.

Take “IsdX1 (GST removed with thrombin) (domain or fragment)”: the Kd in assay [1] was 9.43 mM; in assay [2] it was 7.33 µM.
